According to patent publication US20090181057A1 (BOARD OF TRUSTEES OF THE UNIVERSITY OF ILLINOIS, published 2009):

Legend:
[1] = target: T1, von Willebrand factor (vWF), purified human (human, UniProt P04275 764-2813); assay: flow cytometry of CHO cells with purified VWF and ristocetin, anti-VWF monoclonal antibody
T1 construct: Purified vWF in the flow cytometry and capillary adhesion assays; the vWF of the donor's plasma in the assays with platelet-rich plasma; also called purified vWF
Procedure: Flow Cytometric Analysis of VWF Binding to GPIb-IX-expressing Cells—CHO cells expressing wild type (1b9) and mutant GPIb-IX were grown to confluence to synchronize cell growth. The cells were detached using 0.5 mM EDTA in PBS, pH 7.4. Seventy-five percent of the original volume was then replated in Dulbecco's modified Eagle's medium (DMEM) growth media and cultured for 18 h. For VWF binding assays, cells were detached using 0.5 mM EDTA-PBS, pH 7.4, resuspended to a concentration of 2.25×10⁶ cells/ml and incubated in modified Tyrode's buffer (2.5 mM Hepes, 12.1 mM NaHCO₃, 2.36 mM KCl, 0.136 M NaCl, 1 mM CaCl₂, 1 mM MgCl₂, 0.1% D-glucose, 1% BSA, pH 7.4) for 30 min at 4° C. […] After washing once with Tyrode's buffer, cells were further incubated with 10 μg/ml FITC-labeled SZ-29 (a monoclonal antibody against vWF) in the dark at 22° C. for 30 min and then analyzed by flow cytometry. […]
The cells were then analyzed by flow cytometry without washing. […]
To determine the roles of the above described two phosphoserine residues in regulating ligand binding function of GPIb-IX, CHO cell lines bearing wild type and the mutants of GPIb-IX were incubated with purified VWF in the presence of ristocetin (a VWF modulator that induces VWF binding to GPIb-IX). Binding of VWF was determined by flow cytometry using an anti-VWF monoclonal antibody. […]

[2] = target: maltose-binding protein (MBP), conjugated to control beads (UniProt P0AEX9 27-392 = MBP); assay: bead pull-down from platelet lysate, anti-GPIbα immunoblot
Procedure: 14-3-3 binding to GPIb-IX. Binding of GPIb-IX to 14-3-3-conjugated beads were performed as previously described (Du et al., J. Biol. Chem., 271:7362-7367 (1996)). Briefly, 14-3-3-conjugated Sepharose 4B beads and maltose-binding protein (MBP)-conjugated control beads were preincubated with various concentrations of synthetic peptides at 4° C. for 1 h, and then with platelet lysates for an additional 1 h. The beads were washed three times. Bound GPIb-IX was detected by Western blot with a monoclonal antibody against GPIbα, WM23.
To examine if the above peptides interfere with 14-3-3 interaction with GPIb-IX, platelet lysates were incubated with beads conjugated with recombinant 14-3-3-maltose-binding protein (MBP) fusion protein in the absence or presence of MPαC or control peptides. GPIb-IX from platelet lysates specifically bound to 14-3-3 beads but not the control MBP-conjugated beads (FIG. 1B).

B1: recombinant wild type GPIb-IX expressed in CHO cells (1b9) (receptor)
chain 1: HPICEVSKVASHLEVNCDKRNLTALPPDLPKDTTILHLSENLLYTFSLATLMPYTRLTQLNLDRCELTKLQVDGTLPVLGTLDLSHNQLQSLPLLGQTLPALTVLDVSFNRLTSLPLGALRGLGELQELYLKGNELKTLPPGLLTPTPKLEKLSLANNNLTELPAGLLNGLENLDTLLLQENSLYTIPKGFFGSHLLPFAFLHGNPWLCNCEILYFRRWLQDNAENVYVWKQGVDVKAMTSNVASVQCDNSDKFPVYKYPGKGCPTLGDEGDTDLYDYYPEEDTEGDKVRATRTVVKFPTKAHTTPWGLFYSWSTASLDSQMPSSLHPTQESTKEQTTFPPRWTPNFTLHMESITFSKTPKSTTEPTPSPTTSEPVPEPAPNMTTLEPTPSPTTPEPTSEPAPSPTTPEPTPIPTIATSPTILVSATSLITPKSTFLTTTKPVSLLESTKKTIPELDQPPKLRGVLQGHLESSRNDPFLHPDFCCLLPLGFYVLGLFWLLFASVVLILLLSWVGHVKPQALDSGQGAALTTATQTTHLELQRGRQVTVPRAWLLFLRGSLPTFRSSLFLWVRPNGRVGPLVAGRRPSALSQGRGQDLLSTVSIRYSGHSL
chain 2: CPAPCSCAGTLVDCGRRGLTWASLPTAFPVDTTELVLTGNNLTALPPGLLDALPALRTAHLGANPWRCDCRLVPLRAWLAGRPERAPYRDLRCVAPPALRGRLLPYLAEDELRAACAPGPLCWGALAAQLALLGLGLLHALLLVLLLCRLRRLRARARARAAARLSLTDPLVAERAGTDES
chain 3: TKDCPSPCTCRALETMGLWVDCRGHGLTALPALPARTRHLLLANNSLQSVPPGAFDHLPQLQTLDVTQNPWHCDCSLTYLRLWLEDRTPEALLQVRCASPSLAAHGPLGRLTGYQLGSCGWQLQASWVRPGVLWDVALVAVAALGLALLAGLLCATTEALD
modifications: Ser166 phosphorylated in CHO cells, as the filing says; phosphoserine 609, as the filing calls it
notes: whole, on cells; On intact CHO cells in flow cytometry and adhesion; in Triton X-100 lysate in the co-immunoprecipitation; No GPV
B1: binds [1].

B2: GPIb-IX with wild type GPIbβ and GPIX and GPIbα S609A, expressed in CHO cells (S609A) (receptor)
chain 1: HPICEVSKVASHLEVNCDKRNLTALPPDLPKDTTILHLSENLLYTFSLATLMPYTRLTQLNLDRCELTKLQVDGTLPVLGTLDLSHNQLQSLPLLGQTLPALTVLDVSFNRLTSLPLGALRGLGELQELYLKGNELKTLPPGLLTPTPKLEKLSLANNNLTELPAGLLNGLENLDTLLLQENSLYTIPKGFFGSHLLPFAFLHGNPWLCNCEILYFRRWLQDNAENVYVWKQGVDVKAMTSNVASVQCDNSDKFPVYKYPGKGCPTLGDEGDTDLYDYYPEEDTEGDKVRATRTVVKFPTKAHTTPWGLFYSWSTASLDSQMPSSLHPTQESTKEQTTFPPRWTPNFTLHMESITFSKTPKSTTEPTPSPTTSEPVPEPAPNMTTLEPTPSPTTPEPTSEPAPSPTTPEPTPIPTIATSPTILVSATSLITPKSTFLTTTKPVSLLESTKKTIPELDQPPKLRGVLQGHLESSRNDPFLHPDFCCLLPLGFYVLGLFWLLFASVVLILLLSWVGHVKPQALDSGQGAALTTATQTTHLELQRGRQVTVPRAWLLFLRGSLPTFRSSLFLWVRPNGRVGPLVAGRRPSALSQGRGQDLLSTVSIRYSGHAL
chain 2: CPAPCSCAGTLVDCGRRGLTWASLPTAFPVDTTELVLTGNNLTALPPGLLDALPALRTAHLGANPWRCDCRLVPLRAWLAGRPERAPYRDLRCVAPPALRGRLLPYLAEDELRAACAPGPLCWGALAAQLALLGLGLLHALLLVLLLCRLRRLRARARARAAARLSLTDPLVAERAGTDES
chain 3: TKDCPSPCTCRALETMGLWVDCRGHGLTALPALPARTRHLLLANNSLQSVPPGAFDHLPQLQTLDVTQNPWHCDCSLTYLRLWLEDRTPEALLQVRCASPSLAAHGPLGRLTGYQLGSCGWQLQASWVRPGVLWDVALVAVAALGLALLAGLLCATTEALD
notes: whole, on cells; also called S609A mutant
B2: binds [1].

B3: glycoprotein (GP) Ib-IX-V complex (GPIb-IX) of human platelets (receptor)
chain 1: HPICEVSKVASHLEVNCDKRNLTALPPDLPKDTTILHLSENLLYTFSLATLMPYTRLTQLNLDRCELTKLQVDGTLPVLGTLDLSHNQLQSLPLLGQTLPALTVLDVSFNRLTSLPLGALRGLGELQELYLKGNELKTLPPGLLTPTPKLEKLSLANNNLTELPAGLLNGLENLDTLLLQENSLYTIPKGFFGSHLLPFAFLHGNPWLCNCEILYFRRWLQDNAENVYVWKQGVDVKAMTSNVASVQCDNSDKFPVYKYPGKGCPTLGDEGDTDLYDYYPEEDTEGDKVRATRTVVKFPTKAHTTPWGLFYSWSTASLDSQMPSSLHPTQESTKEQTTFPPRWTPNFTLHMESITFSKTPKSTTEPTPSPTTSEPVPEPAPNMTTLEPTPSPTTPEPTSEPAPSPTTPEPTPIPTIATSPTILVSATSLITPKSTFLTTTKPVSLLESTKKTIPELDQPPKLRGVLQGHLESSRNDPFLHPDFCCLLPLGFYVLGLFWLLFASVVLILLLSWVGHVKPQALDSGQGAALTTATQTTHLELQRGRQVTVPRAWLLFLRGSLPTFRSSLFLWVRPNGRVGPLVAGRRPSALSQGRGQDLLSTVSIRYSGHSL
chain 2: CPAPCSCAGTLVDCGRRGLTWASLPTAFPVDTTELVLTGNNLTALPPGLLDALPALRTAHLGANPWRCDCRLVPLRAWLAGRPERAPYRDLRCVAPPALRGRLLPYLAEDELRAACAPGPLCWGALAAQLALLGLGLLHALLLVLLLCRLRRLRARARARAAARLSLTDPLVAERAGTDES
chain 3: TKDCPSPCTCRALETMGLWVDCRGHGLTALPALPARTRHLLLANNSLQSVPPGAFDHLPQLQTLDVTQNPWHCDCSLTYLRLWLEDRTPEALLQVRCASPSLAAHGPLGRLTGYQLGSCGWQLQASWVRPGVLWDVALVAVAALGLALLAGLLCATTEALD
chain 4: QPFPCPPACKCVFRDAAQCSGGDVARISALGLPTNLTHILLFGMGRGVLQSQSFSGMTVLQRLMISDSHISAVAPGTFSDLIKLKTLRLSRNKITHLPGALLDKMVLLEQLFLDHNALRGIDQNMFQKLVNLQELALNQNQLDFLPASLFTNLENLKLLDLSGNNLTHLPKGLLGAQAKLERLLLHSNRLVSLDSGLLNSLGALTELQFHRNHIRSIAPGAFDRLPNLSSLTLSRNHLAFLPSALFLHSHNLTLLTLFENPLAELPGVLFGEMGGLQELWLNRTQLRTLPAAAFRNLSRLRYLGVTLSPRLSALPQGAFQGLGELQVLALHSNGLTALPDGLLRGLGKLRQVSLRRNRLRALPRALFRNLSSLESVQLDHNQLETLPGDVFGALPRLTEVLLGHNSWRCDCGLGPFLGWLRQHLGLVGGEEPPRCAGPGAHAGLPLWALPGGDAECPGPRGPPPRPAADSSSEAPVHPALAPNSSEPWVWAQPVTTGKGQDHSPFWGFYFLLLAVQAMITVIIVFAMIKIGQLFRKLIRERALG
modifications: phosphoserine at Ser609 (the filing says Ser609 is constitutively phosphorylated in resting platelets)
notes: whole, on cells; Native complex of platelets from healthy donors; solubilised in platelet lysate in the 14-3-3 bead pull-down; also called glycoprotein Ib-IX; platelet VWF receptor
B3: no binding [2].
